{
  "source": "the supplement of paper PMC9732359",
  "note": "± gives the uncertainty stated by the source.",
  "data": [
    {"experiment": "protein stability index of a GFP-peptide fusion (yeast GPS) (PSI 1-4); higher = more stable; sorted into four equal gates, so the index is relative within each strain", "settings": "san1∆", "how_it_was_run": "(§1)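 Peptides tiling yeast proteins in 17-residue segments were fused downstream of GFP, with Cherry expressed from the same plasmid. As a pooled library in yeast, mid-log cultures grown in leucine-free medium were sorted into four equal gates by GFP/Cherry fluorescence ratio. Gate plasmids were PCR-amplified and Illumina-sequenced, and barcodes linked reads to strains. Each peptide received a protein stability index equal to the sum of each gate's read frequency times its gate number.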", "values": [
      {"sequence": "PQGFSSVERGRKRAHSL [REC8]", "protein stability index": "3.36 ± 0.048"},
      {"sequence": "PQPLFMEDPPSTVSGEL [YMR153W/NUP53]", "protein stability index": "3.58 ± 0.11"},
      {"sequence": "PQQAQMQQAQFQAQQAQ [SNF2]", "protein stability index": "2.99 ± 0.055"},
      {"sequence": "PQRLTVLRLATNKGPLA [MCD1]", "protein stability index": "2.8 ± 0.074"},
      {"sequence": "PQTTQMFQSQSQLQPQP [YDL088C/ASM4]", "protein stability index": "2.65 ± 0.046"},
      {"sequence": "PQYQYQRRYVIKEKVQF [ITC1]", "protein stability index": "1.79 ± 0.095"},
      {"sequence": "PRLEKLINEILLKSNDP [RGR1]", "protein stability index": "1.75 ± 0.079"},
      {"sequence": "PRMIELMEFLCVVSTDS [ECM29]", "protein stability index": "1.64 ± 0.1"},
      {"sequence": "PRPSYSSRPNVNTTRRF [YMR129W/POM152]", "protein stability index": "2.92 ± 0.074"},
      {"sequence": "PRRFGKGSRQCRVCSSH [RPS29B]", "protein stability index": "2.97 ± 0.043"},
      {"sequence": "PSANNSSSIKSTGPTGA [RRP4]", "protein stability index": "3.349 ± 0.029"},
      {"sequence": "PSCVYNLIGVITHQGAN [UBP6]", "protein stability index": "2.99 ± 0.13"},
      {"sequence": "PSEIPDAHKAEQEDIIE [SWI3]", "protein stability index": "3.46 ± 0.12"},
      {"sequence": "PSFMLKHHQLFYMLNAG [RPN1]", "protein stability index": "1.18 ± 0.19"},
      {"sequence": "PSKKLKTEDGFVIPALP [RPC82]", "protein stability index": "2.93 ± 0.083"},
      {"sequence": "PSLELSAEYLQMSLEAN [YJR042W/NUP85]", "protein stability index": "2.54 ± 0.18"},
      {"sequence": "PSLIQEEEEDTTTTANI [NUT1]", "protein stability index": "3.18 ± 0.12"},
      {"sequence": "PSLKAHFTEIKLNKVDK [SIR3]", "protein stability index": "2.35 ± 0.065"},
      {"sequence": "PSLKFKPKAVARKSKEE [RPC53]", "protein stability index": "2.43 ± 0.07"},
      {"sequence": "PSMKKIKIEPSADDDVN [SIR3]", "protein stability index": "2.75 ± 0.091"},
      {"sequence": "PSRIFYKALRGMVSHKT [RPL16A]", "protein stability index": "2.44 ± 0.14"},
      {"sequence": "PSTKVASSAVMNRRKIA [YLR335W/NUP2]", "protein stability index": "2.14 ± 0.12"},
      {"sequence": "PSVGVKTMKTFVIHIQE [RPB5]", "protein stability index": "2.47 ± 0.13"},
      {"sequence": "PSVNDFVIGVIIGTFSD [RRP40]", "protein stability index": "2.15 ± 0.077"},
      {"sequence": "PTDSSKILQKRSISKEL [SIR3]", "protein stability index": "3.02 ± 0.065"},
      {"sequence": "PTLAGMAQRTLKNKYES [FAS2]", "protein stability index": "2.63 ± 0.029"},
      {"sequence": "PTLQVGDLVYARVCTAE [RRP40]", "protein stability index": "1.42 ± 0.12"},
      {"sequence": "PTPAIIKPKPLWSGKQI [RPO21]", "protein stability index": "2.48 ± 0.08"},
      {"sequence": "PTPVVTISEKEQDILDL [SSN2]", "protein stability index": "2.61 ± 0.12"},
      {"sequence": "PVAKWFVKFITYLTQEI [SIN4]", "protein stability index": "1.76 ± 0.078"},
      {"sequence": "PVFHKKAKTTKKVVLRL [RPL42A]", "protein stability index": "2.25 ± 0.094"},
      {"sequence": "PVGACATSVESVDIGVE [FAS2]", "protein stability index": "2.12 ± 0.085"},
      {"sequence": "PVKVSGTIKKIEQFAMR [POP5]", "protein stability index": "2.34 ± 0.082"},
      {"sequence": "PVTLAKVIKVLGRTGSR [RPS28A]", "protein stability index": "2.09 ± 0.11"},
      {"sequence": "PVYATIGVETGSEPLIQ [PRP28]", "protein stability index": "2.92 ± 0.064"},
      {"sequence": "PWNDDYPFLLSFLGEAK [YML103C/NUP188]", "protein stability index": "1.66 ± 0.088"},
      {"sequence": "QACGLVKNLSLMSCISV [RPB2]", "protein stability index": "2.44 ± 0.083"},
      {"sequence": "QAEATEWAEENADNVEW [RPS0A]", "protein stability index": "2.27 ± 0.083"},
      {"sequence": "QAQAQAQAAQAAQAQAQ [GAL11]", "protein stability index": "2.93 ± 0.066"},
      {"sequence": "QAQAQAQANNNNNGLPQ [GAL11]", "protein stability index": "2.952 ± 0.029"},
      {"sequence": "QCLRFLKETVIPSLANN [POP6]", "protein stability index": "1.92 ± 0.16"},
      {"sequence": "QDGGIMGSLINGITLAL [SKI6]", "protein stability index": "2.53 ± 0.057"},
      {"sequence": "QDGVLLVALSNEPAARL [FAS2]", "protein stability index": "2.68 ± 0.09"},
      {"sequence": "QDKDAIRKQPDDIINND [SIR2]", "protein stability index": "2.82 ± 0.078"},
      {"sequence": "QDKIELSEEETLLVIRR [SNF2]", "protein stability index": "2.92 ± 0.072"},
      {"sequence": "QDRDRFFLRDTLLWNKN [SNF5]", "protein stability index": "2.83 ± 0.046"},
      {"sequence": "QDRHVIFLAERRILPKP [RPS7A]", "protein stability index": "2.86 ± 0.27"},
      {"sequence": "QDSIDISIKDNKLVMKS [GAL11]", "protein stability index": "3.21 ± 0.053"},
      {"sequence": "QEASKQYTKDEQFYTKD [RPN2]", "protein stability index": "3.19 ± 0.083"},
      {"sequence": "QEHNIQDSNVMPGSQIN [SNF2]", "protein stability index": "2.68 ± 0.07"}
    ]},
    {"experiment": "protein stability index of a GFP-peptide fusion (yeast GPS) (PSI 1-4); higher = more stable; sorted into four equal gates, so the index is relative within each strain", "settings": "ubr1∆", "how_it_was_run": "as §1", "values": [
      {"sequence": "PEEEAAIRRENEWAEDR [SKP1]", "protein stability index": "3.28 ± 0.1"}
    ]}
  ]
}
